In publication PMC2898215:

Each binder was assayed against streptavidin (UniProt P22629 25-183) (assay: capillary electrophoresis).
Chain of streptavidin (P22629 25-183): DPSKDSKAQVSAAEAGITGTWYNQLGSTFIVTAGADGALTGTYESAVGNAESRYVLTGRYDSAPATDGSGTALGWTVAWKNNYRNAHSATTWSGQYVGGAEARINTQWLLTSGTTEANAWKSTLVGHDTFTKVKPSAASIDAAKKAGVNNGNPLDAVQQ

| Binder | binding signal [% bound] |
| --- | --- |
| CAAACCTCGCGCCGATTGCAGGCAGGTTTG (structured_DNA) [S10-113 minimal] | 50 |
| CTTGTGTTTGCTCCCCGACGCAGGGGACACAAG (structured_DNA) [S10-115 minimal] | 60 |
| CTGTGAGACGACGCACCGGTCGCAGGTTTTGTCTCACAG (structured_DNA) [NRR] | 33 |
| CACGTAACGCATACGCCGCAGTATTTATGTG (structured_DNA) [S10-101 minimal] | > 70 |
| TAGGACAAACGCACACGGCGCAGTGTTTTGACCTA (structured_DNA) [S10-103 minimal] | 48 |
| CATATTTAGCGCGTGTGTCGCAACACCTATATATG (structured_DNA) [S10-104 minimal] | 53 |
